Data on 9 sequences can be found in the supplement of paper PMC5998384.

Data set [1] concerns HeLa Kyoto. Put plainly: solubility in G1/S (NP-40 vs SDS abundance) (log2 ratio); higher = more soluble. To be noted: cell cycle stage: G1/S.
Data set [2] deals with HeLa Kyoto. Put plainly: melting temperature (median over replicates), in situ; higher = more thermally stable.
Data set [3] deals with HeLa Kyoto. Put plainly: solubility change mitosis vs G1/S (difference of NP-40 vs SDS log2 ratios) (log2 ratio difference); higher = more soluble in mitosis.
In data set [4] the test system is HeLa Kyoto. Put plainly: thermal stability score vs G1/S (z-score of summed log2 fold changes over temperatures); higher = more thermally stable than in G1/S.
[5] abbreviates: cell cycle stage: early G1 (4.5 h after nocodazole release).
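Throughout, for melting temperature (median over replicates), in situ: HeLa Kyoto cells synchronized by double thymidine or nocodazole block, proteins quantified by TMT10plex mass spectrometry, three independent biological replicates.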
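Throughout, for solubility change mitosis vs G1/S (difference of NP-40 vs SDS log2 ratios): synchronized HeLa Kyoto cells (double thymidine block for G1/S, nocodazole release for mitosis), protein amounts in NP-40 versus SDS lysates quantified by mass spectrometry, three biological replicates.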
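Throughout, for solubility in G1/S (NP-40 vs SDS abundance): HeLa Kyoto cells arrested at G1/S by double thymidine block, proteins quantified by TMT10plex mass spectrometry in mild NP-40 versus SDS extracts, three biological replicates.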
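Throughout, for thermal stability score vs G1/S (z-score of summed log2 fold changes over temperatures): synchronized HeLa Kyoto cells, proteins quantified by TMT10plex mass spectrometry, three biological replicates, mitosis taken 0.5 h after nocodazole release, G1/S directly after double thymidine block.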

For “MLLLPSAADGRGTAITHALTSASTLCQVEPVGRWFEAFVKRRNRNASASFQELEDKKELSEESEDEELQLEEFPMLKTLDPKDWKNQDHYAVLGLGHVRYKATQRQIKAAHKAMVLKHHPDKRKAAGEPIKEGDNDYFTCITKAYEMLSDPVKRRAFNSVDPTFDNSVPSKSEAKDNFFEVFTPVFERNSRWSNKKNVPKLGDMNSSFEDVDIFYSFWYNFDSWREFSYLDEEEKEKAECRDERRWIEKQNRATRAQRKKEEMNRIRTLVDNAYSCDPRIKKFKEEEKAKKEAEKKAKAEAKRKEQEAKEKQRQAELEAARLAKEKEEEEVRQQALLAKKEKDIQKKAIKKERQKLRNSCKTWNHFSDNEAERVKMMEEVEKLCDRLELASLQCLNETLTSCTKEVGKAALEKQIEEINEQIRKEKEEAEARMRQASKNTEKSTGGGGNGSKNWSEDDLQLLIKAVNLFPAGTNSRWEVIANYMNIHSSSGVKRTAKDVIGKAKSLQKLDPHQKDDINKKAFDKFKKEHGVVPQADNATPSERFEGPYTDFTPWTTEEQKLLEQALKTYPVNTPERWEKIAEAVPGRTKKDCMKRYKELVEMVKAKKAAQEQVLNASRAKK [DNAJC2]”, the “solubility in G1/S (log2)” value in data set [1] was 0.0111. Further, the melting temperature stood at 48.6 °C in data set [2] (cell cycle stage: G1/S) and 48.7 °C in data set [2] (cell cycle stage: mitosis). Besides, the “solubility change mitosis (log2)” value in data set [3] is -0.0365. The thermal stability score worked out at 1.17 in data set [4] (setting [5]) and 1.39 in data set [4] (cell cycle stage: mitosis).
In the case of “MLLPAPALRRALLSRPWTGAGLRWKHTSSLKVANEPVLAFTQGSPERDALQKALKDLKGRMEAIPCVVGDEEVWTSDVQYQVSPFNHGHKVAKFCYADKSLLNKAIEAALAARKEWDLKPIADRAQIFLKAADMLSGPRRAEILAKTMVGQGKTVIQAEIDAAAELIDFFRFNAKYAVELEGQQPISVPPSTNSTVYRGLEGFVAAISPFNFTAIGGNLAGAPALMGNVVLWKPSDTAMLASYAVYRILREAGLPPNIIQFVPADGPLFGDTVTSSEHLCGINFTGSVPTFKHLWKQVAQNLDRFHTFPRLAGECGGKNFHFVHRSADVESVVSGTLRSAFEYGGQKCSACSRLYVPHSLWPQIKGRLLEEHSRIKVGDPAEDFGTFFSAVIDAKSFARIKKWLEHARSSPSLTILAGGKCDDSVGYFVEPCIVESKDPQEPIMKEEIFGPVLSVYVYPDDKYKETLQLVDSTTSYGLTGAVFSQDKDVVQEATKVLRNAAGNFYINDKSTGSIVGQQPFGGARASGTNDKPGGPHYILRWTSPQVIKETHKPLGDWSYAYMQ [ALDH4A1]”, the “solubility in G1/S (log2)” value in data set [1] is 0.0698. Moreover, the figures for the melting temperature in data set [2] (cell cycle stage: G1/S) and in data set [2] (cell cycle stage: mitosis) were 51.8 °C and 50.7 °C, respectively. In data set [3], the “solubility change mitosis (log2)” value is -0.0143. Further, the thermal stability score in data set [4] (setting [5]) is -0.222; in data set [4] (cell cycle stage: mitosis), -0.434.
With “MLLPNILLTGTPGVGKTTLGKELASKSGLKYINVGDLAREEQLYDGYDEEYDCPILDEDRVVDELDNQMREGGVIVDYHGCDFFPERWFHIVFVLRTDTNVLYERLETRGYNEKKLTDNIQCEIFQVLYEEATASYKEEIVHQLPSNKPEELENNVDQILKWIEQWIKDHNS [AK6]”, in data set [1], the “solubility in G1/S (log2)” value came out at 0.193. The figures for the melting temperature in data set [2] (cell cycle stage: G1/S) and in data set [2] (cell cycle stage: mitosis) were 46.9 °C and 49.8 °C, respectively. The “solubility change mitosis (log2)” value in data set [3] is -0.0162. In addition, the thermal stability score was 1.22 in data set [4] (setting [5]) and 1.07 in data set [4] (cell cycle stage: mitosis).
“MLLTVYCVRRDLSEVTFSLQVDADFELHNFRALCELESGIPAAESQIVYAERPLTDNHRSLASYGLKDGDVVILRQKENADPRPPVQFPNLPRIDFSSIAVPGTSSPRQRQPPGTQQSHSSPGEITSSPQGLDNPALLRDMLLANPHELSLLKERNPPLAEALLSGDLEKFSRVLVEQQQDRARREQERIRLFSADPFDLEAQAKIEEDIRQQNIEENMTIAMEEAPESFGQVVMLYINCKVNGHPVKAFVDSGAQMTIMSQACAERCNIMRLVDRRWAGIAKGVGTQKIIGRVHLAQVQIEGDFLPCSFSILEEQPMDMLLGLDMLKRHQCSIDLKKNVLVIGTTGSQTTFLPEGELPECARLAYGAGREDVRPEEIADQELAEALQKSAEDAERQKP [DDI2]”: in data set [1], the “solubility in G1/S (log2)” value was 0.489. Moreover, the melting temperature in data set [2] (cell cycle stage: G1/S) is 52.8 °C; in data set [2] (cell cycle stage: mitosis) it was 53 °C. In data set [3], the “solubility change mitosis (log2)” value was -0.11. Also, the thermal stability score was -0.385 in data set [4] (setting [5]) and 0.166 in data set [4] (cell cycle stage: mitosis).
Consider “MLNMWKVRELVDKATNVVMNYSEIESKVREATNDDPWGPSGQLMGEIAKATFMYEQFPELMNMLWSRMLKDNKKNWRRVYKSLLLLAYLIRNGSERVVTSAREHIYDLRSLENYHFVDEHGKDQGINIRQKVKELVEFAQDDDRLREERKKAKKNKDKYVGVSSDSVGGFRYSERYDPEPKSKWDEEWDKNKSAFPFSDKLGELSDKIGSTIDDTISKFRRKDREDSPERCSDSDEEKKARRGRSPKGEFKDEEETVTTKHIHITQATETTTTRHKRTANPSKTIDLGAAAHYTGDKASPDQNASTHTPQSSVKTSVPSSKSSGDLVDLFDGTSQSTGGSADLFGGFADFGSAAASGSFPSQVTATSGNGDFGDWSAFNQAPSGPVASSGEFFGSASQPAVELVSGSQSALGPPPAASNSSDLFDLMGSSQATMTSSQSMNFSMMSTNTVGLGLPMSRSQNTDMVQKSVSKTLPSTWSDPSVNISLDNLLPGMQPSKPQQPSLNTMIQQQNMQQPMNVMTQSFGAVNLSSPSNMLPVRPQTNALIGGPMPMSMPNVMTGTMGMAPLGNTPMMNQSMMGMNMNIGMSAAGMGLTGTMGMGMPNIAMTSGTVQPKQDAFANFANFSK [CLINT1]”, for which the “solubility in G1/S (log2)” value in data set [1] is -0.186. In addition, the melting temperature in data set [2] (cell cycle stage: G1/S) stood at 51.6 °C; in data set [2] (cell cycle stage: mitosis), 51.9 °C. Besides, the “solubility change mitosis (log2)” value in data set [3] is -0.108. Also, the thermal stability score in data set [4] (setting [5]) is 1.76; in data set [4] (cell cycle stage: mitosis) it was 3.07.
On to “MLNVPSQSFPAPRSQQRVASGGRSKVPLKQGRSLMDWIRLTKSGKDLTGLKGRLIEVTEEELKKHNKKDDCWICIRGFVYNVSPYMEYHPGGEDELMRAAGSDGTELFDQVHRWVNYESMLKECLVGRMAIKPAVLKDYREEEKKVLNGMLPKSQVTDTLAKEGPSYPSYDWFQTDSLVTIAIYTKQKDINLDSIIVDHQNDSFRAETIIKDCLYLIHIGLSHEVQEDFSVRVVESVGKIEIVLQKKENTSWDFLGHPLKNHNSLIPRKDTGLYYRKCQLISKEDVTHDTRLFCLMLPPSTHLQVPIGQHVYLKLPITGTEIVKPYTPVSGSLLSEFKEPVLPNNKYIYFLIKIYPTGLFTPELDRLQIGDFVSVSSPEGNFKISKFQELEDLFLLAAGTGFTPMVKILNYALTDIPSLRKVKLMFFNKTEDDIIWRSQLEKLAFKDKRLDVEFVLSAPISEWNGKQGHISPALLSEFLKRNLDKSKVLVCICGPVPFTEQGVRLLHDLNFSKNEIHSFTA [CYB5R4]”, for which the “solubility in G1/S (log2)” value in data set [1] came out at 0.0176. Moreover, the values for the melting temperature in data set [2] (cell cycle stage: G1/S) and in data set [2] (cell cycle stage: mitosis) were 53.6 °C and 53.7 °C, respectively. The “solubility change mitosis (log2)” value in data set [3] is -0.0937. Further, the thermal stability score in data set [4] (setting [5]) was -0.0239; in data set [4] (cell cycle stage: mitosis) it was -0.629.
On to “MLPARLPFRLLSLFLRGSAPTAARHGLREPLLERRCAAASSFQHSSSLGRELPYDPVDTEGFGEGGDMQERFLFPEYILDPEPQPTREKQLQELQQQQEEEERQRQQRREERRQQNLRARSREHPVVGHPDPALPPSGVNCSGCGAELHCQDAGVPGYLPREKFLRTAEADGGLARTVCQRCWLLSHHRRALRLQVSREQYLELVSAALRRPGPSLVLYMVDLLDLPDALLPDLPALVGPKQLIVLGNKVDLLPQDAPGYRQRLRERLWEDCARAGLLLAPGHQGPQRPVKDEPQDGENPNPPNWSRTVVRDVRLISAKTGYGVEELISALQRSWRYRGDVYLVGATNAGKSTLFNTLLESDYCTAKGSEAIDRATISPWPGTTLNLLKFPICNPTPYRMFKRHQRLKKDSTQAEEDLSEQEQNQLNVLKKHGYVVGRVGRTFLYSEEQKDNIPFEFDADSLAFDMENDPVMGTHKSTKQVELTAQDVKDAHWFYDTPGITKENCILNLLTEKEVNIVLPTQSIVPRTFVLKPGMVLFLGAIGRIDFLQGNQSAWFTVVASNILPVHITSLDRADALYQKHAGHTLLQIPMGGKERMAGFPPLVAEDIMLKEGLGASEAVADIKFSSAGWVSVTPNFKDRLHLRGYTPEGTVLTVRPPLLPYIVNIKGQRIKKSVAYKTKKPPSLMYNVRKKKGKINV [NOA1]”, for which, in data set [1], the “solubility in G1/S (log2)” value amounted to 0.131. Further, the melting temperature in data set [2] (cell cycle stage: G1/S) amounted to 49.8 °C; in data set [2] (cell cycle stage: mitosis), 50.1 °C. In addition, the “solubility change mitosis (log2)” value in data set [3] was -0.187. Further, the thermal stability score in data set [4] (setting [5]) was -0.456; in data set [4] (cell cycle stage: mitosis) it was 0.655.
Regarding “MLPGLAAAAAHRCSWSSLCRLRLRCRAAACNPSDRQEWQNLVTFGSFSNMVPCSHPYIGTLSQVKLYSTNVQKEGQGSQTLRVEKVPSFETAEGIGTELKAPLKQEPLQVRVKAVLKKREYGSKYTQNNFITGVRAINEFCLKSSDLEQLRKIRRRSPHEDTESFTVYLRSDVEAKSLEVWGSPEALAREKKLRKEAEIEYRERLFRNQKILREYRDFLGNTKPRSRTASVFFKGPGKVVMVAICINGLNCFFKFLAWIYTGSASMFSEAIHSLSDTCNQGLLALGISKSVQTPDPSHPYGFSNMRYISSLISGVGIFMMGAGLSWYHGVMGLLHPQPIESLLWAYCILAGSLVSEGATLLVAVNELRRNARAKGMSFYKYVMESRDPSTNVILLEDTAAVLGVIIAATCMGLTSITGNPLYDSLGSLGVGTLLGMVSAFLIYTNTEALLGRSIQPEQVQRLTELLENDPSVRAIHDVKATDLGLGKVRFKAEVDFDGRVVTRSYLEKQDFDQMLQEIQEVKTPEELETFMLKHGENIIDTLGAEVDRLEKELKKRNPEVRHVDLEIL [SLC30A9]”, the “solubility in G1/S (log2)” value in data set [1] was -0.0134. Further, the melting temperature in data set [2] (cell cycle stage: G1/S) was 51.1 °C; in data set [2] (cell cycle stage: mitosis), 51.9 °C. Moreover, the “solubility change mitosis (log2)” value in data set [3] was -0.0502. In addition, the thermal stability score in data set [4] (setting [5]) is -0.0363; in data set [4] (cell cycle stage: mitosis), -0.00857.
In the case of “MLPHVVLTFRRLGCALASCRLAPARHRGSGLLHTAPVARSDRSAPVFTRALAFGDRIALVDQHGRHTYRELYSRSLRLSQEICRLCGCVGGDLREERVSFLCANDASYVVAQWASWMSGGVAVPLYRKHPAAQLEYVICDSQSSVVLASQEYLELLSPVVRKLGVPLLPLTPAIYTGAVEEPAEVPVPEQGWRNKGAMIIYTSGTTGRPKGVLSTHQNIRAVVTGLVHKWAWTKDDVILHVLPLHHVHGVVNALLCPLWVGATCVMMPEFSPQQVWEKFLSSETPRINVFMAVPTIYTKLMEYYDRHFTQPHAQDFLRAVCEEKIRLMVSGSAALPLPVLEKWKNITGHTLLERYGMTEIGMALSGPLTTAVRLPGSVGTPLPGVQVRIVSENPQREACSYTIHAEGDERGTKVTPGFEEKEGELLVRGPSVFREYWNKPEETKSAFTLDGWFKTGDTVVFKDGQYWIRGRTSVDIIKTGGYKVSALEVEWHLLAHPSITDVAVIGVPDMTWGQRVTAVVTLREGHSLSHRELKEWARNVLAPYAVPSELVLVEEIPRNQMGKIDKKALIRHFHPS [ACSF3]”, the “solubility in G1/S (log2)” value in data set [1] is -0.107. Further, the melting temperature was determined as 49.3 °C in data set [2] (cell cycle stage: G1/S) and 49.7 °C in data set [2] (cell cycle stage: mitosis). Also, in data set [3], the “solubility change mitosis (log2)” value is -0.0957. In addition, the thermal stability score is -0.21 in data set [4] (setting [5]) and 1.59 in data set [4] (cell cycle stage: mitosis).
